Measurements from article PMC6697728.

Biological target: EphB2-GFP (UniProt P29323)
UniProt P29323, sequence (P29323 19-1055): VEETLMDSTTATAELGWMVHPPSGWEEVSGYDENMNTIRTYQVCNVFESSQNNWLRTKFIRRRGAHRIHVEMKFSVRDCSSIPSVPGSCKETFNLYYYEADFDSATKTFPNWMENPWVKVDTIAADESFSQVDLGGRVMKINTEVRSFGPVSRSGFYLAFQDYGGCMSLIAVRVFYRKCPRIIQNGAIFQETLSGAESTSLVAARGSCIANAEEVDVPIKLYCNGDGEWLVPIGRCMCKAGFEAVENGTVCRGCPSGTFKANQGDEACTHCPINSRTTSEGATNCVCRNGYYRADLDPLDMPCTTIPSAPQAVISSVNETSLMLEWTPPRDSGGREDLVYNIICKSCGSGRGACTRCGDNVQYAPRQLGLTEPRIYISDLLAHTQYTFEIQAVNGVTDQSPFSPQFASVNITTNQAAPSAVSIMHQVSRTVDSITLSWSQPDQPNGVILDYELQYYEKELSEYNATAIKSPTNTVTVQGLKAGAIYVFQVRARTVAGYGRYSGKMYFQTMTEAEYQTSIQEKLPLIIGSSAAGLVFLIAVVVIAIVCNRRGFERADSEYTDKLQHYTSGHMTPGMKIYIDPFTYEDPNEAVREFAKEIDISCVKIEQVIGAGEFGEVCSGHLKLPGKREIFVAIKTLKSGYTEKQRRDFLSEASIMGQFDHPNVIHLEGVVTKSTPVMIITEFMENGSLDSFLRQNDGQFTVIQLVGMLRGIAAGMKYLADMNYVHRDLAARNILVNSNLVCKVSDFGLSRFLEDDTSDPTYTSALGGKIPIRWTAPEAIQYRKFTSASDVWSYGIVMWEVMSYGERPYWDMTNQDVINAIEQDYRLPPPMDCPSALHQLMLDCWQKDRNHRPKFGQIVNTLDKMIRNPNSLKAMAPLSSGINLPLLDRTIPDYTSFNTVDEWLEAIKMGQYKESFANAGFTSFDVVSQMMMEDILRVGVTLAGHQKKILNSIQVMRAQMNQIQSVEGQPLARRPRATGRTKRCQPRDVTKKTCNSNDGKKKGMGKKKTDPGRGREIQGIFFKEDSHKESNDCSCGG

ephrin-B2-Fc (from UniProt P52799 28-229) (Fc fusion)
decrease in HeLa cell area (collapse) of Control shRNA EphB2-OE cells after 15 min with 1 ug/mL pre-clustered eB2 against Fc: 50%
